Source: publication PMC6692130, “PHLPP1 counter-regulates STAT1-mediated inflammatory signaling” (eLife, 2019)

Biological target: T1, HA-tagged PHLPP1 N-terminal extension (PHLPP1 NTE), residues 1-512 (UniProt O60346 1-512)
T1 construct: PH domain Leucine-rich repeat Protein Phosphatase 1 (PHLPP1), N-terminal extension, residues 1-512 of the 1717-residue protein; also called HA-NTE; pCDNA3 HA PHLPP1 NTE-WT; source: HEK-293T, transfected, in lysate; not shown: HA, N-terminal, kept
T1 sequence (looked up): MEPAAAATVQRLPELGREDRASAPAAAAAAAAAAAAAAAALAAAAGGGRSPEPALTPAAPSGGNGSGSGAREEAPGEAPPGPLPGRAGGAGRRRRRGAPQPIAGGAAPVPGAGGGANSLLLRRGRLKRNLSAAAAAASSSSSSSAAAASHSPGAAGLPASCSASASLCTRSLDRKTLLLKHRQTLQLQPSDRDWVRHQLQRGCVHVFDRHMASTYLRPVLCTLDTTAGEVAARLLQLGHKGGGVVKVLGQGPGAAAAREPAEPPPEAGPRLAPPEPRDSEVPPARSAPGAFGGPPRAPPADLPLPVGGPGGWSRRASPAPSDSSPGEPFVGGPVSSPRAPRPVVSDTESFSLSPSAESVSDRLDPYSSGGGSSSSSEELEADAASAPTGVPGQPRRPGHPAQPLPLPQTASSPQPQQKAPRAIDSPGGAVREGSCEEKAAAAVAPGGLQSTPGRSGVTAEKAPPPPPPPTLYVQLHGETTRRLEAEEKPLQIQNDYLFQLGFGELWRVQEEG
Experiment: co-IP; HEK-293T cells transfected with HA-tagged PHLPP1 constructs and GFP-STAT1; detergent-solubilized lysates incubated with anti-HA antibody at 4°C overnight, protein A/G agarose 1 hr at 4°C, washed three times in lysis buffer with 0.3 M NaCl and 0.1% Triton X 100; blot probed with GFP antibody; GFP-STAT1 IP divided by HA IP, normalized to HA-NTE IP, three independent experiments
Details: partners not purified

B1: GFP-STAT1 (natural protein, UniProt P42224 1-750, looked up)
chain: MSQWYELQQLDSKFLEQVHQLYDDSFPMEIRQYLAQWLEKQDWEHAANDVSFATIRFHDLLSQLDDQYSRFSLENNFLLQHNIRKSKRNLQDNFQEDPIQMSMIIYSCLKEERKILENAQRFNQAQSGNIQSTVMLDKQKELDSKVRNVKDKVMCIEHEIKSLEDLQDEYDFKCKTLQNREHETNGVAKSDQKQEQLLLKKMYLMLDNKRKEVVHKIIELLNVTELTQNALINDELVEWKRRQQSACIGGPPNACLDQLQNWFTIVAESLQQVRQQLKKLEELEQKYTYEHDPITKNKQVLWDRTFSLFQQLIQSSFVVERQPCMPTHPQRPLVLKTGVQFTVKLRLLVKLQELNYNLKVKVLFDKDVNERNTVKGFRKFNILGTHTKVMNMEESTNGSLAAEFRHLQLKEQKNAGTRTNEGPLIVTEELHSLSFETQLCQPGLVIDLETTSLPVVVISNVSQLPSGWASILWYNMLVAEPRNLSFFLTPPCARWAQLSEVLSWQFSSVTKRGLNVDQLNMLGEKLLGPNASPDGLIPWTRFCKENINDKNFPFWLWIESILELIKKHLLPLWNDGCIMGFISKERERALLKDQQPGTFLLRFSESSREGAITFTWVERSQNGGEPDFHAVEPYTKKELSAVTFPDIIRNYKVMAAENIPENPLKYLYPNIDKDHAFGKYYSRPKEAPEPMELDGPKGTGYIKTELISVSEVHPSRLQTTDNLLPMSPEEFDEVSRIVGSVEFDSMMNTV
notes: STAT1, detected in the co-IP by its GFP tag; the methods give no source or limits for it; source: HEK-293T, transfected, in lysate
fold binding against PHLPP1 lacking the NTE: ~26 fold
fold binding against full-length PHLPP1: ~5 fold
